Source: patent US20060235215A1 (published 2006)

T1: O. sativa Catalase A Isozyme, prey clone aa 332-433 (Oryza sativa, UniProt P0C549 332-433)
T1 construct: prey; AD fusion; input trait library; also called OsCATA; PN20899
T1 sequence: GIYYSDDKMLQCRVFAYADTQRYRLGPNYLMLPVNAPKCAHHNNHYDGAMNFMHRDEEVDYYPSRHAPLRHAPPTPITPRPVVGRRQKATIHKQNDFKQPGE

T2: O. sativa Cellulose Synthase Catalytic Subunit, RSW1-Like, prey clone aa 411-489 (Oryza sativa, UniProt A2Y0X2 411-489)
T2 construct: prey; AD fusion; input trait library; also called OsCS; PN19707
T2 sequence: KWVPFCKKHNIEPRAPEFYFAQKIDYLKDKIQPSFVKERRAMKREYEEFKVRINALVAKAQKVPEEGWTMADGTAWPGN

T3: Novel Protein PN22154, Similar to A. thaliana Glutamyl Aminopeptidase, prey clone aa 390-562 (Oryza sativa, UniProt Q6Z6L4 390-562)
T3 construct: prey; AD fusion; input trait library; also called OsPN22154
T3 sequence: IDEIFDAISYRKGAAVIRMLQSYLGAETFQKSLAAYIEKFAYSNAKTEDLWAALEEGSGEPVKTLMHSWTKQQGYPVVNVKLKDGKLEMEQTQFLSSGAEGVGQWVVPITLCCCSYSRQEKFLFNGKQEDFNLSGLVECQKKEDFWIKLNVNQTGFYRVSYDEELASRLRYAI

T4: Novel Protein PN23485, Similar to Hordeum vulgare Coproporphyrinogen III Oxidase, chloroplast precursor, prey … (Oryza sativa, UniProt Q7XPL2 165-318)
T4 construct: prey; AD fusion; output trait library; also called OsPN23485
T4 sequence: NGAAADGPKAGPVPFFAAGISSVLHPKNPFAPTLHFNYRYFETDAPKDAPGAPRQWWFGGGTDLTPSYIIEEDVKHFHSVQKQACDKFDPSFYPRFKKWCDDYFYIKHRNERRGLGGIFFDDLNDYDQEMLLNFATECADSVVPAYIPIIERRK

T5: Beta-Expansin EXPB2, prey clone aa 80-207 (Oryza sativa, UniProt O24230 80-207)
T5 construct: prey; AD fusion; input trait library; also called OsEXPB2; PN19902
T5 sequence: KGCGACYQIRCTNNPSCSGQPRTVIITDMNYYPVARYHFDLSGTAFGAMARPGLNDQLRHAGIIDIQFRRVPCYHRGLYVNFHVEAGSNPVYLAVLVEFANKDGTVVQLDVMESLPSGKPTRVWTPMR

T6: O. sativa Putative 14-3-3 Protein, prey clone aa 53-259 (Oryza sativa, UniProt Q06967 53-259)
T6 construct: prey; AD fusion; input trait library; four clones; also called Os008938-3209; PN20215
T6 sequence: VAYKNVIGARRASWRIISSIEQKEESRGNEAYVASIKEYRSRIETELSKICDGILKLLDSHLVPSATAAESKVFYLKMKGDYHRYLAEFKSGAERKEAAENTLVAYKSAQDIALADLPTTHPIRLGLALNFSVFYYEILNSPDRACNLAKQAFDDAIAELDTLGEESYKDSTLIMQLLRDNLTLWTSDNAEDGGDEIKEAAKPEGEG

T7: Pyruvate orthophosphate dikinase-like PN20674, prey clone aa 64-263 (Oryza sativa, UniProt Q6AVA8 64-263)
T7 construct: prey; AD fusion; input trait library
T7 sequence: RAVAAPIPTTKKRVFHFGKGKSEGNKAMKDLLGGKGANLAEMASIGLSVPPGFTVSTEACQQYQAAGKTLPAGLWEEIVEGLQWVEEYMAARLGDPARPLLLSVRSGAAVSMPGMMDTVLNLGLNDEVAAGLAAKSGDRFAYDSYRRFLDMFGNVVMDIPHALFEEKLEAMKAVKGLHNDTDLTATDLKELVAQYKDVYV

T8: Pyruvate orthophosphate dikinase-like PN20674, prey clone aa 71-298 (Oryza sativa, UniProt Q6AVA8 71-298)
T8 construct: prey; AD fusion; input trait library
T8 sequence: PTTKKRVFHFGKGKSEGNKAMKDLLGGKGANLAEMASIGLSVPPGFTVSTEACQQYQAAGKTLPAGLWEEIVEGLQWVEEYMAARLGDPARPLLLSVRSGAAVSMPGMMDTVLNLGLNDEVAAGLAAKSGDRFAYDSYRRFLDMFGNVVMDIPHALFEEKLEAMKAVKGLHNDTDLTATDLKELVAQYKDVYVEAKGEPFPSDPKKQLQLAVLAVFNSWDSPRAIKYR

T9: Novel Protein 23053, Fragment, Similar to Arabidopsis Putative Na+-Dependent Inorganic Phosphate … (Oryza sativa, UniProt Q8W0H5 141-320)
T9 construct: prey; AD fusion; input trait library; two clones; also called OsPN23053
T9 sequence: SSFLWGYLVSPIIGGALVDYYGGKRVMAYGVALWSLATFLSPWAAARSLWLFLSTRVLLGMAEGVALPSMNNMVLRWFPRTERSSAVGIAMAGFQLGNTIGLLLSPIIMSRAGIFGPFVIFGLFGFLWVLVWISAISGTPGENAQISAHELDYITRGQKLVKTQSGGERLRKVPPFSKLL

T10: Beta-Expansin EXPB2, prey clone aa 80-218 (Oryza sativa, UniProt O24230 80-218)
T10 construct: prey; AD fusion; input trait library; two clones; also called OsEXPB2; PN19902
T10 sequence: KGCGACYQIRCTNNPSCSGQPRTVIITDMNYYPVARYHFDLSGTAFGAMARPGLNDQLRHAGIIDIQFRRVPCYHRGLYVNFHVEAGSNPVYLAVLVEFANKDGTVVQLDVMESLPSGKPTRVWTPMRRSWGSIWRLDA

B1: O. sativa Chitinase, Class III, bait fragment aa 10-200 (enzyme)
chain: YIGAQFTGVRFSDVPVNPGLSFHFILAFAIDYFMATQSSKPAPANGVFAPYWDTANLSPAAVAAAKAAHPNLSVILALGGDTVQNTGVNATFAPTSSVDAWVRNAADSVSGLIDAYGLDGVDVDYEHFAAGVDTFVECIGRLLTELKARHPNIATSIAPFEHPVVQRYYQPLWRRYAGVIDYVNFQFYGYG
notes: bait; also called OsCHIB1; PN19651
B2: Hypothetical Protein 006819-2510, Similar to Hemerocallis Senescence-Related Protein 5, bait fragment aa 1-273 (other)
chain: MAFRLSNSLLGILNAVTFLLSVPVLGGGIWLATRADGTECERYFSAPVIAFGVFLLLVSLAGLVGACCRVNCLLWFYLVAMFVLIVVLFCFTVFAFVVTNKGAGEAVSGRGYKEYRLGDYSNWLQKRMENSKNWNRIRSCLQDSKVCKKLQDKNWDRTQFFKADLSPLESGCCKPPSSCNFLYVSGTNWTKVPTNSSDPDCNTWVDDGTQLCYNCQSCKAGAVATLKRDWKRVAVVCIVFLVFIVIVYSLGCCAFRNNRRDNRGAYRGAAWKG
notes: bait; also called Os006819-2510; PN20462
B3: O. sativa Defender Against Apoptotic Death 1, bait clone aa 1-115 (other)
chain: MPRATSDAKLLIQSLGKAYAATPTNLKIIDLYVVFAVATALIQVVYMGIVGSFPFNSFLSGVLSCIGTAVLAVCLRIQVNKDNKEFKDLPPERAFADFVLCNLVLHLVIMNFLG
notes: bait; text says OsDAD1 has 114 aa; also called OsDAD1; PN20251
B4: O. sativa Chilling-Inducible Protein CAA90866, bait clone aa 100-250 (other)
chain: GEMTERVAQEDRIPVLKASQDHLKEFISICEALELISEDELEISRQKNLIPWQIEEHRRLHGSSAKRLQKQSSRIKERKERRRRHESSCLSAPIELGGDLLRMMEKEREGMVSYYLIGSIEGFDLLDMLKKEEEIVPAVKEGKRRMVMHLL
notes: bait; also called OsCAA90866; PN20311
B5: Elicitor responsive protein, bait fragment aa 50-145 (other)
chain: PEWNETFMFSVTHNATELIIKLMDSDSGTDDDFVGEATISLEAIYTEGSIPPTVYNVVKEEEYRGEIKVGLTFTPEDDRDRGLSEEDIGGWKQSS
notes: bait; also called OsERP; PN20696
B6: O. sativa Defender Against Apoptotic Death 1, bait clone aa 30-115 (other)
chain: DLYVVFAVATALIQVVYMGIVGSFPFNSFLSGVLSCIGTAVLAVCLRIQVNKDNKEFKDLPPERAFADFVLCNLVLHLVIMNFLG
notes: as for B3
B7: O. sativa 14-3-3 Protein Homolog GF14-c, bait fragment aa 1-150 (other)
chain: MSREENVYMAKLAEQAERYEEMVEYMEKVAKTVDVEELTVEERNLLSVAYKNVIGARRASWRIVSSIEQKEEGRGNEEHVTLIKEYRGKIEAELSKICDGILKLLDSHLVPSSTAAESKVFYLKMKGDYHRYLAEFKTGAERKEAAESTM
notes: bait; also called OsGF14-c; PN12464
B8: Hypothetical Protein 006819-2510, Similar to Hemerocallis Senescence-Related Protein 5, bait fragment aa 1-150 (other)
chain: MAFRLSNSLLGILNAVTFLLSVPVLGGGIWLATRADGTECERYFSAPVIAFGVFLLLVSLAGLVGACCRVNCLLWFYLVAMFVLIVVLFCFTVFAFVVTNKGAGEAVSGRGYKEYRLGDYSNWLQKRMENSKNWNRIRSCLQDSKVCKKL
notes: as for B2
B9: Novel Protein PN23226, Callose synthase, prey clone aa 345-432 (other)
chain: WFMSNQETSFVTIGQRVLANPLRVRFHYGHPDIFDRLFHLTRGGVSKASKIINLSEDIFAGFNSTLREGNVTHHEYMQVGKGRDVGLN
notes: prey; AD fusion; output trait library; also called OsPN23226

Legend:
Assay in all cases: yeast two-hybrid
[1] = biological target: T1, O. sativa Catalase A Isozyme, prey …
Procedure: (§1) Yeast carrying the target gene construct was combined with yeast carrying the activation domain library. The two yeast strains mated to form diploid yeast and were plated on media that selected for expression of one or more Ga14p-responsive reporter genes. Thus, both hybrid proteins (i.e., the target “bait” protein and the activation domain “prey” protein) were expressed in a yeast reporter strain where an interaction between the test proteins results in transcription of the reporter genes […]. Colonies that arose after incubation were selected for further characterization. The activation domain plasmid was isolated from each colony obtained in the two-hybrid search. The sequence of the insert in this construct was obtained by sequence analysis (e.g., Sanger's dideoxy nucleotide chain termination method; see Ausubel et al., 1988, including updates up to 2002). Thus, the identity of positives obtained from these searches was determined by sequence analysis against proprietary and public (e.g., GENBANK®) nucleic acid and protein databases.
(§2) This example provides newly characterized rice proteins interacting with a rice chitinase, class III (OsCHIB1), and with rice cellulose synthase catalytic subunit, RSW1-like (OsCS). An automated, high-throughput yeast two-hybrid assay technology (provided by Myriad Genetics Inc., Salt Lake City, Utah) was used to search for protein interactions with the chitinase and cellulose synthase bait proteins.

[2] = biological target: T2, O. sativa Cellulose Synthase Catalytic …
Procedure: as §1, §2

[3] = biological target: T3, Novel Protein PN22154, Similar to A. …
Procedure: as §1, §2

[4] = biological target: T4, Novel Protein PN23485, Similar to …
[5] = biological target: T5, Beta-Expansin EXPB2, prey clone aa …
[6] = biological target: T6, O. sativa Putative 14-3-3 Protein, prey …
[7] = biological target: T7, Pyruvate orthophosphate dikinase-like …
[8] = biological target: T8, Pyruvate orthophosphate dikinase-like …
[9] = biological target: T9, Novel Protein 23053, Fragment, Similar …
[10] = biological target: T10, Beta-Expansin EXPB2, prey clone aa …
[11] = biological target: T11, O. sativa Chloroplast Ribulose Bisphosphate Carboxylase, Large Chain, prey clone aa 287-462 (Oryza sativa, UniProt P0C510 287-462)
T11 construct: prey; AD fusion; input trait library; also called OsRBCL; PN23426

[12] = biological target: T12, O. sativa Histone Deacetylase HD1, prey clone aa 90-221 (Oryza sativa, UniProt Q7Y0Y8 90-221)
T12 construct: prey; AD fusion; output trait library; also called OsAAK01712; PN24059

[13] = biological target: B2

T12 sequence (Q7Y0Y8 90-221): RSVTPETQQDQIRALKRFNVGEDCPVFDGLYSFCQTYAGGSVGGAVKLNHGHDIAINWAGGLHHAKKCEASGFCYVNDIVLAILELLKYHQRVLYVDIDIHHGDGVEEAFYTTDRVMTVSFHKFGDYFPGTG
T11 sequence (P0C510 287-462): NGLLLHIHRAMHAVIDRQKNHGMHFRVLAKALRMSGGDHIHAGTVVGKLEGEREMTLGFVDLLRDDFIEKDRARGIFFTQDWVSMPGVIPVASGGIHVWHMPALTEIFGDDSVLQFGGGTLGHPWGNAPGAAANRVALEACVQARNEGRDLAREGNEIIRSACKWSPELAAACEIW

B1
binding result [1]: binds
binding result [2]: binds
binding result [3]: binds

B2
binding result [4]: binds

B3
binding result [5]: binds

B4
binding result [6]: binds

B5
binding result [7]: binds
binding result [8]: binds

B6
binding result [9]: binds
binding result [10]: binds

B7
binding result [11]: binds

B8
binding result [12]: binds

B9
binding result [13]: binds
